The text below walks through data of PMC9966149, “The Dynamic Interactions of a Multitargeting Domain in Ameloblastin Protein with Amelogenin and Membrane” (International Journal of Molecular Sciences, 2023).

Assay [1] has as its target spin-labeled xAB2N and AB2 (all residues). The experiment in a line: EPR (continuous-wave, site-directed spin labelling); 15 uM spin-labeled peptide in 50 mM Tris, pH 7.6, 50 mM NaCl; rP172-W0 added to 15 uM, then to 75 uM; all in solution.
The target in assay [2] is T1, tryptophan-free recombinant porcine amelogenin (rP172-W25Y/W45Y/W161Y) (porcine, UniProt P45561 17-189, W25Y | W45Y | W161Y).
T1 construct: all three tryptophans changed to tyrosine; also called rP172-W0; recombinant Amel
T1 sequence (looked up): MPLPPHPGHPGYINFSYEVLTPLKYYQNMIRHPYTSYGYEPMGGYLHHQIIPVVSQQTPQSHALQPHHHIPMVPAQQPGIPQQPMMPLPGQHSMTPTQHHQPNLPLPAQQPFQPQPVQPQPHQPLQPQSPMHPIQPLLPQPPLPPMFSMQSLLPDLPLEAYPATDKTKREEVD
Description: other fluorescence titration; intrinsic tryptophan fluorescence (excitation 295 nm, peak wavelength); 8 uM tryptophan-containing peptide before and after 40 uM rP172-W0, no LUVs; 10 mM Tris-HCl, 50 mM NaCl, final pH 7.4. The following applies: both partners purified.

B1: tryptophan-free recombinant porcine amelogenin (rP172-W25Y/W45Y/W161Y) (natural protein)
chain: MPLPPHPGHPGYINFSYEVLTPLKYYQNMIRHPYTSYGYEPMGGYLHHQIIPVVSQQTPQSHALQPHHHIPMVPAQQPGIPQQPMMPLPGQHSMTPTQHHQPNLPLPAQQPFQPQPVQPQPHQPLQPQSPMHPIQPLLPQPPLPPMFSMQSLLPDLPLEAYPATDKTKREEVD
Take B1: the difference between inverse central linewidths (1/LW) of EPR spectra with and without Amel in assay [1] is 0.16 to 0.35 G.^-1.

B2: AB2N, the first 20 amino acids of the AB2 sequence (peptide, UniProt O55189 67-86, looked up)
peptide: YSRLGFGKALNSLWLHGLLP
notes: Mouse ameloblastin (Ambn), the first 20 residues of AB2; residues 3-20 of AB2 are stated to be residues 69-86 of mouse Ambn, so the peptide is 67-86; also called AB2 N-terminus; source: synthetic peptide (Biomer Technologies)
Turning to B2, in assay [2], the binding result was “binds”.

B3: xAB2N, extended AB2 N-terminus (peptide, UniProt O55189 51-86, looked up)
peptide: TMRQLGSLQGLNALSQYSRLGFGKALNSLWLHGLLP
notes: source: synthetic peptide (Biomer Technologies)
As for B3, the binding result in assay [2] is reported as “binds”.
